Measured values taken from the supplement of paper PMC10567573.

B1: MGC16075 (parent)
chain: AGSRQALSFEVPPCNYDPEKWIQ

Variants of: B1
Assay: protein stability index of a GFP-peptide fusion (GPS, HEK-293T) (PSI 1-6); higher = more stable
Conditions: c terminus: native
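Further: lentivirally expressed fusions sorted by FACS into six bins by GFP to DsRed ratio, PSI derived from sequencing read proportions per bin multiplied by bin number.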

| Variant | protein stability index |
| --- | --- |
| AGSRQALSFEVPPCNYDPEKWMQ [I22M] | 4.14 |
| AGSRQALSFEVPPCNYDPEKWCQ [I22C] | 4.56 |
| AGSRQALSFEVPPCNYDPEKWKQ [I22K] | 4.72 |
| AGSRQALSFEVPPCNYDPEKWLQ [I22L] | 3.92 |
| AGSRQALSFEVPPCNYDPEKWAQ [I22A] | 4.22 |
| AGSRQALSFEVPPCNYDPEKWEQ [I22E] | 4.4 |
| AGSRQALSFEVPPCNYDPEKWGQ [I22G] | 5.11 |
| AGSRQALSFEVPPCNYDPEKWDQ [I22D] | 4.97 |
| AGSRQALSFEVPPCNYDPEKWFQ [I22F] | 4.43 |
| AGSRQALSFEVPPCNYDPEKWNQ [I22N] | 4.99 |
| AGSRQALSFEVPPCNYDPEKWHQ [I22H] | 4.62 |
| AGSRQALSFEVPPCGYDPEKWIQ [N15G] | 2.03 |
| AGSRQALSFEVPPCFYDPEKWIQ [N15F] | 1.96 |
| AGSRQALSFEVPPCHYDPEKWIQ [N15H] | 1.28 |
| AGSRQALSFEVPPCDYDPEKWIQ [N15D] | 1.78 |
| AGSRQALSFEVPPCKYDPEKWIQ [N15K] | 2.53 |
| AGSRQALSFEVPPCTYDPEKWIQ [N15T] | 1.64 |
| AGSRQALSFEVPPCWYDPEKWIQ [N15W] | 2.14 |
| AGSRQALSFEVPPCIYDPEKWIQ [N15I] | 2.06 |
| AGSRQALSFEVPPCQYDPEKWIQ [N15Q] | 3.17 |
| AGSRQALSFEVPPCSYDPEKWIQ [N15S] | 1.35 |
| AGSRQALSFEVPPCMYDPEKWIQ [N15M] | 1.84 |
| AGSRQALSFEVPPCAYDPEKWIQ [N15A] | 1.71 |
| AGSRQALSFEVPPCRYDPEKWIQ [N15R] | 2.62 |
| AGSRQALSFEVPPCCYDPEKWIQ [N15C] | 2.23 |

| Variant | protein stability index |
| --- | --- |
| AGSRQALSFEVPPCYYDPEKWIQ [N15Y] | 2.7 |
| AGSRQALSFEVPPCLYDPEKWIQ [N15L] | 1.99 |
| AGSRQALSFEVPPCEYDPEKWIQ [N15E] | 1.58 |
| AGSRQALSFEVPPCPYDPEKWIQ [N15P] | 2.68 |
| AGSRQALSFEVPPCNYDPHKWIQ [E19H] | 2.64 |
| AGSRQALSFEVPPCNYDPWKWIQ [E19W] | 2.47 |
| AGSRQALSFEVPPCNYDPSKWIQ [E19S] | 2.2 |
| AGSRQALSFEVPPCNYDPYKWIQ [E19Y] | 2.07 |
| AGSRQALSFEVPPCNYDPRKWIQ [E19R] | 2.14 |
| AGSRQALSFEVPPCNYDPTKWIQ [E19T] | 1.97 |
| AGSRQALSFEVPPCNYDPIKWIQ [E19I] | 1.84 |
| AGSRQALSFEVPPCNYDPAKWIQ [E19A] | 1.22 |
| AGSRQALSFEVPPCNYDPMKWIQ [E19M] | 1.52 |
| AGSRQALSFEVPPCNYDPFKWIQ [E19F] | 2.33 |
| AGSRQALSFEVPPCNYDPVKWIQ [E19V] | 1.86 |
| AGSRQALSFEVPPCNYDPKKWIQ [E19K] | 3.27 |
| AGSRQALSFEVPPCNYDPDKWIQ [E19D] | 2.54 |
| AGSRQALSFEVPPCNYDPCKWIQ [E19C] | 1.76 |
| AGSRQALSFEVPPCNYDPLKWIQ [E19L] | 3.01 |
| AGSRQALSFEVPPCNYDPPKWIQ [E19P] | 2.28 |
| AGSRQALSFEVPPCNYDPQKWIQ [E19Q] | 2.72 |
| AGSRQALSFEVPPCNYDPGKWIQ [E19G] | 2.16 |
| AGSRQALSFEVPPCNFDPEKWIQ [Y16F] | 1.68 |
| AGSRQALSFEVPPCNTDPEKWIQ [Y16T] | 2.53 |
| AGSRQALSFEVPPCNDDPEKWIQ [Y16D] | 2.52 |

| Variant | protein stability index |
| --- | --- |
| AGSRQALSFEVPPCNEDPEKWIQ [Y16E] | 2.64 |
| AGSRQALSFEVPPCNNDPEKWIQ [Y16N] | 2.2 |
| AGSRQALSFEVPPCNHDPEKWIQ [Y16H] | 1.46 |
| AGSRQALSFEVPPCNMDPEKWIQ [Y16M] | 2.03 |
| AGSRQALSFEVPPCNRDPEKWIQ [Y16R] | 1.24 |
| AGSRQALSFEVPPCNGDPEKWIQ [Y16G] | 3.5 |
| AGSRQALSFEVPPCNWDPEKWIQ [Y16W] | 1.47 |
| AGSRQALSFEVPPCNSDPEKWIQ [Y16S] | 1.48 |
| AGSRQALSFEVPPCNCDPEKWIQ [Y16C] | 2.17 |
| AGSRQALSFEVPPCNLDPEKWIQ [Y16L] | 2.04 |
| AGSRQALSFEVPPCNPDPEKWIQ [Y16P] | 2.22 |
| AGSRQALSFEVPPCNIDPEKWIQ [Y16I] | 2.01 |
| AGSRQALSFEVPPCNQDPEKWIQ [Y16Q] | 2.54 |
| AGSRQALSFEVPPCNADPEKWIQ [Y16A] | 1.54 |
| AGSRQALSFEVPPCNKDPEKWIQ [Y16K] | 1.61 |
| AGSRQALSFEVPPCNVDPEKWIQ [Y16V] | 2.47 |
| AGSRQALSFEVPPCNYTPEKWIQ [D17T] | 1.92 |
| AGSRQALSFEVPPCNYHPEKWIQ [D17H] | 2.12 |
| AGSRQALSFEVPPCNYNPEKWIQ [D17N] | 1.51 |
| AGSRQALSFEVPPCNYMPEKWIQ [D17M] | 1.9 |
| AGSRQALSFEVPPCNYFPEKWIQ [D17F] | 1.57 |
| AGSRQALSFEVPPCNYEPEKWIQ [D17E] | 2.07 |
| AGSRQALSFEVPPCNYLPEKWIQ [D17L] | 1.81 |
| AGSRQALSFEVPPCNYVPEKWIQ [D17V] | 2 |
| AGSRQALSFEVPPCNYWPEKWIQ [D17W] | 1.91 |

| Variant | protein stability index |
| --- | --- |
| AGSRQALSFEVPPCNYYPEKWIQ [D17Y] | 2.15 |
| AGSRQALSFEVPPCNYSPEKWIQ [D17S] | 1.49 |
| AGSRQALSFEVPPCNYKPEKWIQ [D17K] | 3.23 |
| AGSRQALSFEVPPCNYQPEKWIQ [D17Q] | 2.18 |
| AGSRQALSFEVPPCNYIPEKWIQ [D17I] | 2.17 |
| AGSRQALSFEVPPCNYGPEKWIQ [D17G] | 2.29 |
| AGSRQALSFEVPPCNYCPEKWIQ [D17C] | 1.29 |
| AGSRQALSFEVPPCNYPPEKWIQ [D17P] | 1.74 |
| AGSRQALSFEVPPCNYAPEKWIQ [D17A] | 2.18 |
| AGSRQALSFEVPPCNYRPEKWIQ [D17R] | 2.15 |
| AGSRQALSFEVPICNYDPEKWIQ [P13I] | 2.7 |
| AGSRQALSFEVPHCNYDPEKWIQ [P13H] | 1.2 |
| AGSRQALSFEVPYCNYDPEKWIQ [P13Y] | 2.88 |
| AGSRQALSFEVPTCNYDPEKWIQ [P13T] | 1.99 |
| AGSRQALSFEVPMCNYDPEKWIQ [P13M] | 1.3 |
| AGSRQALSFEVPQCNYDPEKWIQ [P13Q] | 2.03 |
| AGSRQALSFEVPCCNYDPEKWIQ [P13C] | 3 |
| AGSRQALSFEVPSCNYDPEKWIQ [P13S] | 2.66 |
| AGSRQALSFEVPECNYDPEKWIQ [P13E] | 1.44 |
| AGSRQALSFEVPDCNYDPEKWIQ [P13D] | 1.8 |
| AGSRQALSFEVPFCNYDPEKWIQ [P13F] | 2.1 |
| AGSRQALSFEVPNCNYDPEKWIQ [P13N] | 1.27 |
